Literature values as cited in paper PMC9395234.

Molecular target: C4BP (Homo sapiens) (UniProt P04003)
UniProt P04003, sequence (P04003 49-597, chain 1 of 2): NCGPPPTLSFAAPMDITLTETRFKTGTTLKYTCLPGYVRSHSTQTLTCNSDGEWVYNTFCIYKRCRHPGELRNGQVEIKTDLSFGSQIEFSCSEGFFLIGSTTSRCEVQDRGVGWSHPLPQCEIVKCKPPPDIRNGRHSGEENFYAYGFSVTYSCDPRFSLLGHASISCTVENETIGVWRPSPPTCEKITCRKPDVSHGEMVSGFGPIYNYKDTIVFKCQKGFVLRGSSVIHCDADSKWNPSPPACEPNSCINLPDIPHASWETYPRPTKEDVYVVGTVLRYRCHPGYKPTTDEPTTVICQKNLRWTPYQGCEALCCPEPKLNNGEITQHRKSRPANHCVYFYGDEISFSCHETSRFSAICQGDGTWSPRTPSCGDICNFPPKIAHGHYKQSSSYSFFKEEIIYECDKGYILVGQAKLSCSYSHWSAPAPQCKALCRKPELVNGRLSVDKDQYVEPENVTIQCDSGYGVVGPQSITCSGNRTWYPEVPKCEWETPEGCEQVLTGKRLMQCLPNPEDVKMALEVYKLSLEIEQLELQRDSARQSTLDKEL
UniProt P04003, sequence (P20851 18-252, chain 2 of 2, further chain): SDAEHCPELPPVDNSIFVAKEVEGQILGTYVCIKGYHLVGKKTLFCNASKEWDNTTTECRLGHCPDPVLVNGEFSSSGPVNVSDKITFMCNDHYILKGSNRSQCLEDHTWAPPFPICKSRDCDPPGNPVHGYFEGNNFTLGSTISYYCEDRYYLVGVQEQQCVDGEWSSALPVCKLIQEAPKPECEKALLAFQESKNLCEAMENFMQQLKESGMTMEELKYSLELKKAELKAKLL

Kd: 0.1 nM
Substance: Protein S (from UniProt P07225)
